Measured values reported in patent publication US20150037348A1 (AbbVie / Abbott, published 2015).

How the values were obtained:
[1] = molecular target: T1, recombinant human IL-12 (rhIL-12) (human, UniProt P29459 23-219; P29460 23-328); experiment: biomolecular interaction assay (BIAcore)
T1 construct: disulfide-linked p35/p40 heterodimer (p70); also called IL-12 p70; rec. human IL12
T1 sequence (looked up) 1: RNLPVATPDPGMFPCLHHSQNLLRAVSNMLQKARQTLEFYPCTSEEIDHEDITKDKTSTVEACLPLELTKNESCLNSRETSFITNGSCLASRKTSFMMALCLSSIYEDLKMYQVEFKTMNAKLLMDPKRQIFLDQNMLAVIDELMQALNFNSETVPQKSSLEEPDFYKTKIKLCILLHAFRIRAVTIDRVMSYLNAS
T1 sequence (looked up) 2: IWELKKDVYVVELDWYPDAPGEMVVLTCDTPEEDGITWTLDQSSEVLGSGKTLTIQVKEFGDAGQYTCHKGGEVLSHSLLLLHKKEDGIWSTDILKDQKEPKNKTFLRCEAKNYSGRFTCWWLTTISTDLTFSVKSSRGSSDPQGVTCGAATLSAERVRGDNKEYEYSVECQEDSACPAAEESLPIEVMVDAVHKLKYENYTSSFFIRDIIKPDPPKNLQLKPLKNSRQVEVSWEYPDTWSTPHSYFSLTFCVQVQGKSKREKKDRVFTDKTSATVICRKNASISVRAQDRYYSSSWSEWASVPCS
Description: Three independent experiments were performed, and the values shown are averages for the three experiments. From these measurements, the apparent dissociation (kd) and association (kₐ) rate constants were derived and used to calculate a Kd value for the interaction (see Table 10).

[2] = molecular target: T1, recombinant human IL-12 (rhIL-12); experiment: cell-based or functional assay
[3] = molecular target: T2, baboon IL-12 (PBMC supernatant) (baboon); experiment: cell-based or functional assay
T2 chain 1: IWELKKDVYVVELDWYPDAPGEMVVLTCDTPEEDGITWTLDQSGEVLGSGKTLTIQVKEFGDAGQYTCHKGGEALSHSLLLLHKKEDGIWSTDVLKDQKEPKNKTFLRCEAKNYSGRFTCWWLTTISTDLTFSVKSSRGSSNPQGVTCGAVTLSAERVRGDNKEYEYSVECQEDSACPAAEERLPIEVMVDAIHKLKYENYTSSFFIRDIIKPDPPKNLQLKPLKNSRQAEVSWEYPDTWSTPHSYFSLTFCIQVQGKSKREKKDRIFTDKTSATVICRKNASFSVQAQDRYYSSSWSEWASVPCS
T2 chain 2: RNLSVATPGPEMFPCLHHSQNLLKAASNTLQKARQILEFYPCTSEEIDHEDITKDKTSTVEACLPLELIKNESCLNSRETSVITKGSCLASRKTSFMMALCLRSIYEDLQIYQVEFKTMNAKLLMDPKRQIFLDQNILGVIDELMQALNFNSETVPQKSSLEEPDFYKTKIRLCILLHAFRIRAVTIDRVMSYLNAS

[4] = molecular target: T3, cynomolgus IL-12 (PBMC supernatant) (cynomolgus monkey); experiment: cell-based or functional assay
T3 chain 1: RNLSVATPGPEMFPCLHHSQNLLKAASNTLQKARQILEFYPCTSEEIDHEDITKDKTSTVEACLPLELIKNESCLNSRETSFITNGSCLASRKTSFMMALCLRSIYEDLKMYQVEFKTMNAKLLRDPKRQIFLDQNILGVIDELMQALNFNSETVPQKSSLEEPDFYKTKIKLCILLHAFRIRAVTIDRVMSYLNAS
T3 chain 2: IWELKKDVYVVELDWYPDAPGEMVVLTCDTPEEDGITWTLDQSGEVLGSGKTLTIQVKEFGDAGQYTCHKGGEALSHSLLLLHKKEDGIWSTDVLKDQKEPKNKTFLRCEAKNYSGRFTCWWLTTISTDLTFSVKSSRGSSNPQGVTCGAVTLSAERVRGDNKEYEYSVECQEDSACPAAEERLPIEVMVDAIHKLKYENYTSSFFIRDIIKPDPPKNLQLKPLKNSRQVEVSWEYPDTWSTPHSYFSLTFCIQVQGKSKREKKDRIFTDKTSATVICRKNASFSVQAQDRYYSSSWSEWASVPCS

recombinant rhesus IL-12 = molecular target: T4, recombinant rhesus IL-12 (rhesus monkey, UniProt P48091 23-219; P48095 23-328); experiment: cell-based or functional assay
T4 sequence (looked up) 1: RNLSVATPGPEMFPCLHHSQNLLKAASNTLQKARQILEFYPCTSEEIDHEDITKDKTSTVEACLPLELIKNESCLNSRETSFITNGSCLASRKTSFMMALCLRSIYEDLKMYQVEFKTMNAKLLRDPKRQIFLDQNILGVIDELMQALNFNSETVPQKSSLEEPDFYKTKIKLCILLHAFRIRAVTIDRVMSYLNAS
T4 sequence (looked up) 2: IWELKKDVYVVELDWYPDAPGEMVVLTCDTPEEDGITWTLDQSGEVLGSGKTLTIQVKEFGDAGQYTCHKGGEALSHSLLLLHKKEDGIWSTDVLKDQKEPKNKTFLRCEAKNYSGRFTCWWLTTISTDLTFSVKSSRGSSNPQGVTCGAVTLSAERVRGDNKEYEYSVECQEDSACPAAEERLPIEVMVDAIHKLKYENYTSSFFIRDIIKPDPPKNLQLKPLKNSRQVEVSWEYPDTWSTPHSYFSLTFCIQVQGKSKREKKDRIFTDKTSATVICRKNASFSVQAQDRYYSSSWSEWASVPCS

[5] = molecular target: T5, dog IL-12 (PBMC supernatant) (dog, UniProt Q28267 26-222; Q28268 23-329); experiment: cell-based or functional assay
T5 sequence (looked up) 1: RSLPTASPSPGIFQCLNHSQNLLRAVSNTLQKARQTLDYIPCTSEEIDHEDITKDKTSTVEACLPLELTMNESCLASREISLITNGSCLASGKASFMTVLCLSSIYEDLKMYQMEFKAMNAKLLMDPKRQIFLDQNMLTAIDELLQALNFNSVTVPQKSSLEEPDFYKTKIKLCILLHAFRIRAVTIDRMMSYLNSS
T5 sequence (looked up) 2: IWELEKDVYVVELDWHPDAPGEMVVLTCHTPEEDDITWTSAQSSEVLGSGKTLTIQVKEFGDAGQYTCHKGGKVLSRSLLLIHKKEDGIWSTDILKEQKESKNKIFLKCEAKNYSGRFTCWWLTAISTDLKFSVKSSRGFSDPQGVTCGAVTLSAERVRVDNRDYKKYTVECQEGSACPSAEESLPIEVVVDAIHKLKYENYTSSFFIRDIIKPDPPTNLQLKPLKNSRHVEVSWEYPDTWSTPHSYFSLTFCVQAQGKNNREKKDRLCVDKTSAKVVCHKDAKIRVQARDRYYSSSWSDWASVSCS

[6] = molecular target: T1, recombinant human IL-12 (rhIL-12); experiment: cell-based or functional assay; remark: listed apart in the source
[7] = molecular target: T6, human IL-12 p40 subunit (free p40) (human, UniProt P29460 23-328); experiment: competition ELISA: soluble human IL-12 p40 (2 nM) against J695 binding to immobilized human IL-12
T6 sequence (looked up): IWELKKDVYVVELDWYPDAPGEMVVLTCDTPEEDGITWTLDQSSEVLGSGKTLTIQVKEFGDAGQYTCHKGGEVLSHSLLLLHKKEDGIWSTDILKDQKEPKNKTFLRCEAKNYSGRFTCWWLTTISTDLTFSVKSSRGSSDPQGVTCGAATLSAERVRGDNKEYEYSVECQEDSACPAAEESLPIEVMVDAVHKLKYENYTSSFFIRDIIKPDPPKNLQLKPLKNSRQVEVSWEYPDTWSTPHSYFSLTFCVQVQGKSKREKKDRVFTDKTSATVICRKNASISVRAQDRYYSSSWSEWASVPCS
Description: (§1) The plates were washed 4 times and incubated for 1 h at room temperature with 100 μl mouse anti-human lambda-HRP (1:500 in PBS-T/BSA, Southern Biotech. Ass. Inc., Birmingham, Ala.). The plates were washed 4 times and developed with ABTS (Kirkegaard & Perry Lab, Gaithersburg, Md.) for 20-30 minutes in the dark. The OD₄₅₀ nm was read using a microplate reader (Molecular Devices, Menlo Park, Calif.).

human IGF-II = human IGF-II (human, UniProt P01344 25-91); experiment: competition ELISA: soluble cytokine against J695 (100 ng/ml) binding to immobilized human IL-12
Description: as §1

human IL-8 = human IL-8 (human, UniProt P10145 28-99, limits assumed); experiment: as above
Description: as §1

Binder | Kd [1] | PHA blast IC50 [2] | IC50 (M), bioassay, Baboon IL-12 PBMC sup [3] | IC50 (M), bioassay, Cyno IL-12 PBMC sup [4] | IC50 (M), bioassay, Rhesus IL-12 Purified (recombinant rhesus IL-12) | IC50 (M), bioassay, Dog IL-12 PBMC sup [5] | IC50 (M), bioassay, Human IL-12 Purified [6] | binding result [7] | binding result (human IGF-II) | binding result (human IL-8)
J695 (antibody, human IgG1, V domains shown, human IgG1 with lambda light chain) VH: QVQLVESGGGVVQPGRSLRLSCAASGFTFSSYGMHWVRQAPGKGLEWVAFIRYDGSNKYYADSVKGRFTISRDNSKNTLYLQMNSLRAEDTAVYYCKTHGSHDNWGQGTMVTVSS VL: QSVLTQPPSVSGAPGQRVTISCSGSRSNIGSNTVKWYQQLPGTAPKLLIYYNDQRPSGVPDRFSGSKSGTSASLAITGLQAEDEADYYCQSYDRYTHPALLFGTGTKVTVLG | 0.0974 nM | 5.8 pM | 1.5e-11 M | 1e-11 M | 1e-11 M | 3.5e-10 M | 5e-12 M | – | – | –
J695 (antibody, V domains shown, Human IgG1 with lambda light chain (detected with anti-human lambda); Made in CHO or COS cells) VH: QVQLVESGGGVVQPGRSLRLSCAASGFTFSSYGMHWVRQAPGKGLEWVAFIRYDGSNKYYADSVKGRFTISRDNSKNTLYLQMNSLRAEDTAVYYCKTHGSHDNWGQGTMVTVSS VL: QSVLTQPPSVSGAPGQRVTISCSGSRSNIGSNTVKWYQQLPGTAPKLLIYYNDQRPSGVPDRFSGSKSGTSASLAITGLQAEDEADYYCQSYDRYTHPALLFGTGTKVTVLG | – | – | – | – | – | – | – | binds | no binding (tested: 2 nM) | no binding (tested: 2 nM)
